According to patent publication EP4703474A1, “ANTI-LRRC15 ANTIBODY” (priority 2023, dated 2024):

Experiments:
[1] = tested on: LRRC15-positive human osteosarcoma cell line HuO9; assay: In vitro cell growth inhibitory activity (CellTiter-Glo 2.0); type: cell-based; conditions: 0.0002 to 1.5 µg/mL, 6 days of culture, compared to control hIgG-PBD
Protocol: (§1) LRRC15-positive human osteosarcoma cell line HuO9 (JCRB) was seeded in 10% FBS-containing RPMI medium at 5 x 10^3 cells/50 μL/well, LRRC15-positive human melanoma cell line Hs294T was seeded in 10% FBS and 20 ng/mL TGFβ1-containing RPMI medium at 5 x 10^3 cells/50 μL/well, or, as a negative control, LRRC15-negative HEK293α was seeded in 10% FBS-containing RPMI medium at 2 x 10^3 cells/50 μL/well in a 96-well plate, and cultured overnight under conditions of 37°C and 5% CO2. The next day, the three types of hR024-drug conjugates (clone names of […]-PBD, […]-V1-PBD, and […]-V2-PBD) prepared in Example 5 and the control hIgG-PBD were diluted at a common ratio of 3 to a final concentration of 0.0002 (μg/mL) from 1.5 (μg/mL) and added. After 6 days of culture, the number of viable cells was measured by quantification of ATP using CellTiter-Glo 2.0 Assay (Promega).

[2] = tested on: LRRC15-positive human melanoma cell line Hs294T; assay: as above; type: cell-based; conditions: 20 ng/mL TGFβ1-containing medium, 0.0002 to 1.5 µg/mL, 6 days of culture, compared to control hIgG-PBD
Protocol: as §1

LRRC15-negative HEK293α = assay: In vitro cell growth inhibitory activity (CellTiter-Glo 2.0), negative control cells; type: cell-based; conditions: 0.0002 to 1.5 µg/mL, 6 days of culture, compared to control hIgG-PBD
Protocol: as §1

[3] = tested on: LRRC15-negative human lung carcinoma cell line EBC-1; assay: In vivo antitumor effect, EBC-1 subcutaneous transplant model; conditions: tail vein, on Day 9, female SCID mice
Protocol: The antitumor effects of the antibody-drug conjugates were evaluated by using animal models in which cells of the human tumor cell line had been transplanted into immunodeficient mice. 4 to 6 Week-old SCID mice (CB17/Icr-Prkdc[scid]/CrlCrlj, Jackson Laboratory Japan, Inc.) were habituated for 3 days or more under SPF conditions before experimental use. The mice were fed with sterilized solid feed (FR-2, Funabashi Farms Co., Ltd.) and given sterilized tap water (prepared by adding a solution of 5 to 15 ppm sodium hypochlorite). The major and minor diameters of the transplanted tumors were measured twice a week with an electronic digital caliper ([…] Corporation), and the estimated tumor volume was calculated using the following formula. Estimated tumor volume (mm^3) = 1/2 × major diameter (mm) × [minor diameter (mm)]^2 All antibody-drug conjugates were diluted with ABS and administered into the tail vein at doses shown in each Example. In addition, ABS (vehicle) or control hIgG-PBD prepared in Reference Example 4 was administered as the control group, in a similar manner. 5 to 6 Mice were used per group in the experiment. LRRC15-negative human lung carcinoma cell line EBC-1 (JCRB) was suspended in PBS mixed with 50% Matrigel (Corning Incorporated), 1.0 × 10^6 cells were subcutaneously transplanted into the right flank of female SCID mice (Day 0), and random grouping was performed on Day 9. From publicly known information, it is known that in this tumor model, carcinoma cells are LRRC15 negative, and cells in the tumor stroma are LRRC15 positive (International Publication No. 2017/095805). On the day of grouping, a vehicle, the antibody-drug conjugate […]-PBD, […]-V1-PBD, or […]-V2-PBD prepared in Example 5 was administered into the tail vein at a dose of 0.4 mg or 0.2 mg/kg. The abscissa indicates the number of days, and the ordinate indicates estimated tumor volume, and the error bars indicate SEM values. […] The antitumor effects of the antibody-drug conjugates were evaluated by using animal models in which cells of a human tumor cell line had been transplanted into immunodeficient mice, or cells of a mouse tumor cell line had been transplanted into immunocompetent mice. 4 to 6 Week-old SCID mice (CB17/Icr-Prkdc[scid]/CrlCrlj, Jackson Laboratory Japan, Inc.), NSG mice (NOD.Cg-Prkdcscid Il2rgtm1Wjl/SzJ, Jackson Laboratory Japan, Inc.), or B6J mice (C57BL/6J, Jackson Laboratory Japan, Inc.) were habituated for 3 days or more under SPF conditions before experimental use. The mice were fed with sterilized solid feed and given sterilized tap water. The major and minor diameters of the transplanted tumors were measured twice a week with an electronic digital caliper (Mitutoyo Corporation), and the estimated tumor volume was calculated using the following formula. […]

Molecule | inhibitory activity against cell growth [1] | inhibitory activity against cell growth [2] | inhibitory activity against cell growth (LRRC15-negative HEK293α) | antitumor effect (estimated tumor volume) ([3]; 0.4 mg or 0.2 mg/kg) | antitumor effect (estimated tumor volume) ([3]; 0.3 mg/kg, huM25-PBD at the same dose)
H02L01-PBD (conjugate) heavy: EVQLVESGGGLVQPGGSLRLSCAASGFTFRDYYMAWVRQAPGKGLEWVSSIGFDESRTYYADSVKGRFTISRDDSKNTLYLQMNSLRAEDTAVYYCARHGVSYYSGDNWFAYWGQGTLVTVSSASTKGPSVFPLAPSSKSTSGGTAALGCLVKDYFPEPVTVSWNSGALTSGVHTFPAVLQSSGLYSLSSVVTVPSSSLGTQTYICNVNHKPSNTKVDKKVEPKSCDKTHTCPPCPAPEAAGGPSVFLFPPKPKDTLMISRTPEVTCVVVDVSHEDPEVKFNWYVDGVEVHNAKTKPREEQYNSTYRVVSVLTVLHQDWLNGKEYKCKVSNKALAAPIEKTISKAKGQPREPQVYTLPPSREEMTKNQVSLTCLVKGFYPSDIAVEWESNGQPENNYKTTPPVLDSDGSFFLYSKLTVDKSRWQQGNVFSCSVMHEALHNHYTQKSLSLSPGK light: DIQMTQSPSSLSASVGDRVTITCKSSQGLLYSGDQKNYLAWYQQKPGKAPKLLIYWASTRQSGVPSRFSGSGSGTDFTLTISSLQPEDFATYYCQQYYDPPYTFGQGTKVEIKRTVAAPSVFIFPPSDEQLKSGTASVVCLLNNFYPREAKVQWKVDNALQSGNSQESVTEQDSKDSTYSLSSTLTLSKADYEKHKVYACEVTHQGLSSPVTKSFNRGEC | inhibited tumor cell proliferation when added at a lower concentration | inhibited tumor cell proliferation when added at a lower concentration | growth inhibitory activity equivalent to that of the control hIgG-PBD | antitumor activity higher than that of the vehicle group | 
H02L01-V2-PBD (conjugate) heavy: EVQLVESGGGLVQPGGSLRLSCAASGFTFRDYYMAWVRQAPGKGLEWVSSIGFDESRTYYADSVKGRFTISRDDSKNTLYLQMNSLRAEDTAVYYCARHGVSRYSGDNWFAYWGQGTLVTVSSASTKGPSVFPLAPSSKSTSGGTAALGCLVKDYFPEPVTVSWNSGALTSGVHTFPAVLQSSGLYSLSSVVTVPSSSLGTQTYICNVNHKPSNTKVDKKVEPKSCDKTHTCPPCPAPEAAGGPSVFLFPPKPKDTLMISRTPEVTCVVVDVSHEDPEVKFNWYVDGVEVHNAKTKPREEQYNSTYRVVSVLTVLHQDWLNGKEYKCKVSNKALAAPIEKTISKAKGQPREPQVYTLPPSREEMTKNQVSLTCLVKGFYPSDIAVEWESNGQPENNYKTTPPVLDSDGSFFLYSKLTVDKSRWQQGNVFSCSVMHEALHNHYTQKSLSLSPGK light: DIQMTQSPSSLSASVGDRVTITCKSSQGLLYSGDQKNYLAWYQQKPGKAPKLLIYWASTRQSGVPSRFSGSGSGTDFTLTISSLQPEDFATYYCQQYYDPPYTFGQGTKVEIKRTVAAPSVFIFPPSDEQLKSGTASVVCLLNNFYPREAKVQWKVDNALQSGNSQESVTEQDSKDSTYSLSSTLTLSKADYEKHKVYACEVTHQGLSSPVTKSFNRGEC | inhibited tumor cell proliferation when added at a lower concentration | inhibited tumor cell proliferation when added at a lower concentration | growth inhibitory activity equivalent to that of the control hIgG-PBD | antitumor activity higher than that of the vehicle group | 
H02L01-V1-PBD (conjugate) heavy: EVQLVESGGGLVQPGGSLRLSCAASGFTFRDYYMAWVRQAPGKGLEWVSSIGFDESRTYYADSVKGRFTISRDDSKNTLYLQMNSLRAEDTAVYYCARHGVSKYSGDNWFAYWGQGTLVTVSSASTKGPSVFPLAPSSKSTSGGTAALGCLVKDYFPEPVTVSWNSGALTSGVHTFPAVLQSSGLYSLSSVVTVPSSSLGTQTYICNVNHKPSNTKVDKKVEPKSCDKTHTCPPCPAPEAAGGPSVFLFPPKPKDTLMISRTPEVTCVVVDVSHEDPEVKFNWYVDGVEVHNAKTKPREEQYNSTYRVVSVLTVLHQDWLNGKEYKCKVSNKALAAPIEKTISKAKGQPREPQVYTLPPSREEMTKNQVSLTCLVKGFYPSDIAVEWESNGQPENNYKTTPPVLDSDGSFFLYSKLTVDKSRWQQGNVFSCSVMHEALHNHYTQKSLSLSPGK light: DIQMTQSPSSLSASVGDRVTITCKSSQGLLYSGDQKNYLAWYQQKPGKAPKLLIYWASTRQSGVPSRFSGSGSGTDFTLTISSLQPEDFATYYCQQYYDPPYTFGQGTKVEIKRTVAAPSVFIFPPSDEQLKSGTASVVCLLNNFYPREAKVQWKVDNALQSGNSQESVTEQDSKDSTYSLSSTLTLSKADYEKHKVYACEVTHQGLSSPVTKSFNRGEC | inhibited tumor cell proliferation when added at a lower concentration | inhibited tumor cell proliferation when added at a lower concentration | growth inhibitory activity equivalent to that of the control hIgG-PBD | antitumor activity higher than that of the vehicle group | antitumor activity higher than that of the vehicle and huM25-PBD
